# Results published in patent US20260209320A1 (ALCHEMAB THERAPEUTICS, published 2026).
# Where no end group is shown, it is not given here.
# T1: biotinylated GYSLPQPQPPPPPPPPPP peptide (also: biotinylated, position not given here)
# T1 construct: also called HTT exon1 in the form of biotinylated peptide
# T1 peptide: GYSLPQPQPPPPPPPPPP
# T2: human lysozyme (human, UniProt P61626 19-148)
# T2 sequence (looked up): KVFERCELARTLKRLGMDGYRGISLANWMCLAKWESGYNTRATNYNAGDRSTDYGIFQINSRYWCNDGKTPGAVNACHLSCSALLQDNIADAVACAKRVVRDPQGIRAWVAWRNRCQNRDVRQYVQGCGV
# B1: ATL_0006195 (antibody, V domains shown)
# VH: EVQLVESGGGLVKPGGSLRLSCAASGFTFNKAWMSWVRQAPGKGLEWVGRIKSGIDAGTTDYAAPVKGRFTISRDDSKNTLYLQMNSLKTEDTAVYYCTPPPYYYYYGLDVWGQGTTVTVSS
# VL: QSALTQPRSVSGSPGQSVTISCTGTSSDVGSYNLVSWYQQHPGKAPKLMIYEVNKRPSGVPDRFSGSKSGATASLTISGLQAEDEADYYCGSYAGTANVFGTGTKVTVL
# notes: expressed in IgG1 format; also called ATL_6195
# B2: ATL_0006183 (antibody, V domains shown)
# VH: EVQLVESGGGLVKPGGSLRLSCAASGFTFNKAWMSWVRQAPGKGLEWVGRIKSGIDAGTTDYAAPVKGRFTISRDDSKNTLYLQMNSLKTEDTAVYYCTPPPYYYYGLDVWGQGTTVTVSS
# VL: QSALTQPRSVSGSPGQSVTISCTGTSSDVGSYNLVSWYQQHPGKAPKLMIYEVNKRPSGVPDRFSGSKSGATASLTISGLQAEDEADYYCGSYAGTANVFGTGTKVTVL
# notes: HD patient (ENBB) HCDR3 in ATL5895 VH, ATL5895 VL; also called ATL_6183; ATL6183
# B3: ATL_0006194 (antibody, V domains shown)
# VH: EVQLVESGGGLVKPGGSLRLSCAASGFTFNKAWMSWVRQAPGKGLEWVGRIKSGIDAGTTDYAAPVKGRFTISRDDSKNTLYLQMNSLKTEDTAVYYCVPPPYYYYYGLDVWGQGTTVTVSS
# VL: QSALTQPRSVSGSPGQSVTISCTGTSSDVGSYNLVSWYQQHPGKAPKLMIYEVNKRPSGVPDRFSGSKSGATASLTISGLQAEDEADYYCVSYAGTANVFGTGTKVTVL
# notes: expressed in IgG1 format; also called ATL_6194; ATL6194
# B4: ATL_0005334 (antibody, V domains shown)
# VH: EVQLVESGGGLVKPGGSLRLSCAASGFTFNKAWMNWVRQAPGKGLEWVGRIKSGIDGGTTDYAAPVQGRFTISRDDSKNTVYLQMNSLNTEDTAVYYCIPPPYYYYYGLDVWGQGTTVTVSS
# VL: QSALTQPASVSGSPGQSITISCTGTSSDVGGYKLVSWYQQHPGRAPKLMIYEVSKRPSGVSSRFSGSKSGSTASLTISGLQAEDEADYYCCSYAGSSVVFGGGTKLTVL
# notes: human IgG1; also called ATL_5334
# B5: ATL_0006202 (antibody, IgG1, V domains shown)
# VH: EVQLVESGGGLVKPGGSLRLSCAASGFTFNKAWMSWVRQAPGKGLEWVGRIKSGIDAGTTDYAAPVKGRFTISRDDSKNTLYLQMNSLKTEDTAVYYCSPPPFYYYYGLDVWGQGTTVTVSS
# VL: QSALTQPRSVSGSPGQSVTISCTGTSSDVGSYNLVSWYQQHPGKAPKLMIYEVNKRPSGVPDRFSGSKSGATASLTISGLQAEDEADYYCVSYGGTENVFGTGTKVTVL
# notes: IgG1 format; also called ATL_6202
# B6: ATL_0006374 (antibody, V domains shown)
# VH: EVQLVESGGGLVKPGGSLRLSCAASGFTFNKAWMSWVRQAPGKGLEWVGRIKSGIDAGTTDYAAPVKGRFTISRDDSKNTLYLQMNSLKTEDTAVYWCVPPPYYYYYGLDVWGQGTTVTVSS
# VL: QSALTQPRSVSGSPGQSVTISCTGTSSDVGSYNLVSWYQQHPGKAPKLMIYEVNKRPSGVPDRFSGSKSGATASLTISGLQAEDEADYYCVSYGGTENVFGTGTKVTVL
# notes: also called ATL_6374; ATL 6374
# B7: ATL_0006199 (antibody, V domains shown)
# VH: EVQLVESGGGLVKPGGSLRLSCAASGFTFNKAWMSWVRQAPGKGLEWVGRIKSGIDAGTTDYAAPVKGRFTISRDDSKNTLYLQMNSLKTEDTAVYWCSPPPYYYYYGLDVWGQGTTVTVSS
# VL: QSALTQPRSVSGSPGQSVTISCTGTSSDVGSYNLVSWYQQHPGKAPKLMIYEVNKRPSGVPDRFSGSKSGATASLTISGLQAEDEADYYCGSYAGTANVFGTGTKVTVL
# notes: expressed in IgG1 format; also called ATL_6199
# B8: ATL_0006200 (antibody, V domains shown)
# VH: EVQLVESGGGLVKPGGSLRLSCAASGFTFNKAWMSWVRQAPGKGLEWVGRIKSGIDAGTTDYAAPVKGRFTISRDDSKNTLYLQMNSLKTEDTAVYYCVPPPYYYYYGLDVWGQGTTVTVSS
# VL: QSALTQPRSVSGSPGQSVTISCTGTSSDVGSYNLVSWYQQHPGKAPKLMIYEVNKRPSGVPDRFSGSKSGATASLTISGLQAEDEADYYCGSYAGTANVFGTGTKVTVL
# notes: expressed in IgG1 format; also called ATL_6200
# B9: ATL_0006377 (antibody, V domains shown)
# VH: EVQLVESGGGLVKPGGSLRLSCAASGFTFNKAWMSWVRQAPGKGLEWVGRIKSGIDAGTTDYAAPVKGRFTISRDDSKNTLYLQMNSLKTEDTAVYYCVPSPYYYYYGLDVWGQGTTVTVSS
# VL: QSALTQPRSVSGSPGQSVTISCTGTSSDVGSYNLVSWYQQHPGKAPKLMIYEVNKRPSGVPDRFSGSKSGATASLTISGLQAEDEADYYCVSYAGTANVFGTGTKVTVL
# notes: also called ATL_6377
# B10: ATL_0006375 (antibody, V domains shown)
# VH: EVQLVESGGGLVKPGGSLRLSCAASGFTFNKAWMSWVRQAPGKGLEWVGRIKSGIDAGTTDYAAPVKGRFTISRDDSKNTLYLQMNSLKTEDTAVYYCVPPPYYYYYGLDVWGQGTTVTVSS
# VL: QSALTQPRSVSGSPGQSVTISCTGTSSDVGSYNLVSWYQQHPGKAPKLMIYEVNKRPSGVPDRFSGSKSGATASLTISGLQAEDEADYYCVSYGGTENVFGTGTKVTVL
# notes: also called ATL_6375
# B11: ATL_0006376 (antibody, V domains shown)
# VH: EVQLVESGGGLVKPGGSLRLSCAASGFTFNKAWMSWVRQAPGKGLEWVGRIKSGIDAGTTDYAAPVKGRFTISRDDSKNTLYLQMNSLKTEDTAVYYCVPPPFYYYYGLDVWGQGTTVTVSS
# VL: QSALTQPRSVSGSPGQSVTISCTGTSSDVGSYNLVSWYQQHPGKAPKLMIYEVNKRPSGVPDRFSGSKSGATASLTISGLQAEDEADYYCVSYGGTENVFGTGTKVTVL
# notes: also called ATL_6376
# B12: ATL_0006185 (antibody, V domains shown)
# VH: EVQLVESGGGLVKPGGSLRLSCAASGFTFNKAWMSWVRQAPGKGLEWVGRIKSGIDAGTTDYAAPVKGRFTISRDDSKNTLYLQMNSLKTEDTAVYYCTPPPYYYYGLNVWGQGTTVTVSS
# VL: QSALTQPRSVSGSPGQSVTISCTGTSSDVGSYNLVSWYQQHPGKAPKLMIYEVNKRPSGVPDRFSGSKSGATASLTISGLQAEDEADYYCGSYAGTANVFGTGTKVTVL
# notes: HD patient (ENBB) HCDR3 in ATL5895 VH, ATL5895 VL; also called ATL_6185; ATL6185
# B13: ATL_0006203 (antibody, V domains shown)
# VH: EVQLVESGGGLVKPGGSLRLSCAASGFTFNKAWMSWVRQAPGKGLEWVGRIKSGIDAGTTDYAAPVKGRFTISRDDSKNTLYLQMNSLKTEDTAVYYCIPSPYYYYYGLDVWGQGTTVTVSS
# VL: QSALTQPRSVSGSPGQSVTISCTGTSSDVGSYNLVSWYQQHPGKAPKLMIYEVNKRPSGVPDRFSGSKSGATASLTISGLQAEDEADYYCVSYAGTANVFGTGTKVTVL
# notes: expressed in IgG1 format; also called ATL_6203
# B14: ATL_0006204 (antibody, V domains shown)
# VH: EVQLVESGGGLVKPGGSLRLSCAASGFTFNKAWMSWVRQAPGKGLEWVGRIKSGIDAGTTDYAAPVKGRFTISRDDSKNTLYLQMNSLKTEDTAVYYCIPPPYYYYYGLDVWGQGTTVTVSS
# VL: QSALTQPRSVSGSPGQSVTISCTGTSSDVGSYNLVSWYQQHPGKAPKLMIYEVNKRPSGVPDRFSGSKSGATASLTISGLQAEDEADYYCVSFAGTANVFGTGTKVTVL
# notes: expressed in IgG1 format; also called ATL_6204
# B15: ATL_0006205 (antibody, IgG1, V domains shown)
# VH: EVQLVESGGGLVKPGGSLRLSCAASGFTFNKAWMSWVRQAPGKGLEWVGRIKSGIDAGTTDYAAPVKGRFTISRDDSKNTLYLQMNSLKTEDTAVYWCVPPPYYYYYGLDVWGQGTTVTVSS
# VL: QSALTQPRSVSGSPGQSVTISCTGTSSDVGSYNLVSWYQQHPGKAPKLMIYEVNKRPSGVPDRFSGSKSGATASLTISGLQAEDEADYYCVSYAGTANVFGTGTKVTVL
# notes: IgG1 format; also called ATL_6205
# B16: ATL_0006378 (antibody, V domains shown)
# VH: EVQLVESGGGLVKPGGSLRLSCAASGFTFNKAWMSWVRQAPGKGLEWVGRIKSGIDAGTTDYAAPVKGRFTISRDDSKNTLYLQMNSLKTEDTAVYYCVPSPYYYYYGLDVWGQGTTVTVSS
# VL: QSALTQPRSVSGSPGQSVTISCTGTSSDVGSYNLVSWYQQHPGKAPKLMIYEVNKRPSGVPDRFSGSKSGATASLTISGLQAEDEADYYCVSYGGTENVFGTGTKVTVL
# notes: also called ATL_6378; ATL 6378
# B17: ATL_0006184 (antibody, V domains shown)
# VH: EVQLVESGGGLVKPGGSLRLSCAASGFTFNKAWMSWVRQAPGKGLEWVGRIKSGIDAGTTDYAAPVKGRFTISRDDSKATLYLQMNSLKTEDTAVYYCTPPPYYYYGLDVWGQGTTVTVSS
# VL: QSALTQPASVSGSPGQSITISCTGTSSDVGGYKLVSWYQQHPGRAPKLMIYEVSKRPSGVSSRFSGSKSGSTASLTISGLQAEDEADYYCSSYAGSSVVFGGGTKLTVL
# notes: HD patient (ENBB) HCDR3 in ATL5901 VH, ATL5901 VL; also called ATL_6184; ATL6184
# B18: ATL_0006186 (antibody, V domains shown)
# VH: EVQLVESGGGLVKPGGSLRLSCAASGFTFNKAWMSWVRQAPGKGLEWVGRIKSGIDAGTTDYAAPVKGRFTISRDDSKATLYLQMNSLKTEDTAVYYCTPPPYYYYGLNVWGQGTTVTVSS
# VL: QSALTQPASVSGSPGQSITISCTGTSSDVGGYKLVSWYQQHPGRAPKLMIYEVSKRPSGVSSRFSGSKSGSTASLTISGLQAEDEADYYCSSYAGSSVVFGGGTKLTVL
# notes: HD patient (ENBB) HCDR3 in ATL5901 VH, ATL5901 VL; also called ATL_6186; ATL6186
# Legend:
# [1] = molecular target: T1, biotinylated GYSLPQPQPPPPPPPPPP peptide; test: BLI (Octet), biotinylated peptide on streptavidin biosensor
# [2] = molecular target: T3, Mutant Human HTT Exon 1 48Q (GST) (human); test: HTT sandwich ELISA, experiment 1 (133 nM starting concentration)
# T3 construct: recombinant His- and GST-tagged fusion; also called HTT Exon 1 Q48; 48Q HTT Exon-1
# T3 sequence (chain, as listed by the source mutant limits assumed): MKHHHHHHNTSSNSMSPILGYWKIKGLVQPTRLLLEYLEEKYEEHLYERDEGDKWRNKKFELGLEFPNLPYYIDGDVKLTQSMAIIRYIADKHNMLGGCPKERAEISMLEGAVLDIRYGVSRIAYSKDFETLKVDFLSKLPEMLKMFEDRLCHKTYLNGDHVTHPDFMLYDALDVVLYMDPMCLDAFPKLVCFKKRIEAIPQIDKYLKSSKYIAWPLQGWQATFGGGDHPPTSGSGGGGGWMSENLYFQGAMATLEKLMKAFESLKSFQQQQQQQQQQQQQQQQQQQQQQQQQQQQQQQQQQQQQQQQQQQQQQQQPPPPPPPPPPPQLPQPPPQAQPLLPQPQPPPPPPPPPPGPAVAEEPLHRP
# [3] = molecular target: T3, Mutant Human HTT Exon 1 48Q (GST); test: HTT sandwich ELISA, experiment 2 (400 nM starting concentration)
# [4] = molecular target: T3, Mutant Human HTT Exon 1 48Q (GST); test: HTT sandwich ELISA
# [5] = molecular target: T3, Mutant Human HTT Exon 1 48Q (GST); test: ELISA
# [6] = molecular target: T3, Mutant Human HTT Exon 1 48Q (GST); test: HTT sandwich ELISA; remark: listed apart in the source
# human lysozyme = molecular target: T2, human lysozyme; test: direct ELISA
Binder,binding result [1],EC50 [2],EC50 [3],further results
B1,binds,21.1 nM,14.7 nM,
B2,,,,EC50 [4]: 9.2 nM
B3,binds,19.8 nM,14 nM,
B4,,,,binding result [5]: binds
B5,binds,,13.5 nM,
B6,binds,,,EC50 [6]: 31.1 nM
B7,binds,15 nM,13.1 nM,
B8,binds,12.8 nM,9.75 nM,
B9,,,,binding result (human lysozyme): no binding (tested: less than 1 µM); EC50 [6]: 23.8 nM
B10,,,,EC50 [6]: 20.1 nM
B11,,,,binding result (human lysozyme): no binding (tested: less than 1 µM); EC50 [6]: 11.5 nM
B12,,,,EC50 [4]: 7.31 nM
B13,binds,8.91 nM,8.72 nM,
B14,binds,16.2 nM,12.2 nM,
B15,binds,13.4 nM,16.4 nM,
B16,,,,EC50 [6]: 38.9 nM
B17,,,,EC50 [4]: 10.1 nM
B18,,,,EC50 [4]: 11.1 nM
